Assay [1] has as its target human GUCY2C (guanylyl cyclase 2C), recombinant protein (human) (UniProt P25092).
In assay [2] the target is human CD3 epsilon (CD3ε) (Homo sapiens) (UniProt P07766).
Sequence of UniProt P07766 (P07766 23-207): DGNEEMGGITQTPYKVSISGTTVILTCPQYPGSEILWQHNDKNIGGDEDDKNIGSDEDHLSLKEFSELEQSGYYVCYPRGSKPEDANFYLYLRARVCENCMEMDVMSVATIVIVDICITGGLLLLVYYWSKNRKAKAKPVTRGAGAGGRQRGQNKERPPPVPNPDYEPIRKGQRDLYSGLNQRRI

Sequence of UniProt P25092 (P25092 24-1073): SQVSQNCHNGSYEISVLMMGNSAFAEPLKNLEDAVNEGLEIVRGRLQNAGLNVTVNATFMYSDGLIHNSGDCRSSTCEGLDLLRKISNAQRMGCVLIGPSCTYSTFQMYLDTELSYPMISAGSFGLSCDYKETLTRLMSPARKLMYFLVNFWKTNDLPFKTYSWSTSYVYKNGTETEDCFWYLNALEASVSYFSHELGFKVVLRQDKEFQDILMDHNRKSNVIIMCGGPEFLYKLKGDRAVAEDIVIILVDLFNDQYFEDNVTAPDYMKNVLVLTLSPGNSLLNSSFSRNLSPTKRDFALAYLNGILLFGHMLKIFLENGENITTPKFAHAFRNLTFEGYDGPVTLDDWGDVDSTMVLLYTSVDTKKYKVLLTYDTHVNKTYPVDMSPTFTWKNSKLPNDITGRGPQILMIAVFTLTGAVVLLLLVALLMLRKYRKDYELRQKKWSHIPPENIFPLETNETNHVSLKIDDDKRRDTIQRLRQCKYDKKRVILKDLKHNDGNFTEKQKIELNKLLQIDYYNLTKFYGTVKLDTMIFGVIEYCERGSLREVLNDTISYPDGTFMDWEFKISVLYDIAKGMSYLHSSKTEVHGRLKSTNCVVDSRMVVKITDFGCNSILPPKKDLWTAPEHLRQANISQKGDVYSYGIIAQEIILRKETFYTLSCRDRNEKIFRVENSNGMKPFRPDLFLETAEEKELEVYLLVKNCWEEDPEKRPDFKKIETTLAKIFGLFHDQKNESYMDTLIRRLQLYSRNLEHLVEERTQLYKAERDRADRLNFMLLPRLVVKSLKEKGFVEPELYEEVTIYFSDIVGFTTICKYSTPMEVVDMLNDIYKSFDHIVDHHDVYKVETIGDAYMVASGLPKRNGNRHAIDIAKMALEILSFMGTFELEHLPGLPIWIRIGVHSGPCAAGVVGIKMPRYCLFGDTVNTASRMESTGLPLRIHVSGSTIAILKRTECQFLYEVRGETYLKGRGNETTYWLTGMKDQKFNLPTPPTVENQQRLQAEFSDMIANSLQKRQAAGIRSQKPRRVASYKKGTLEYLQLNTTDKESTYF

Take “PF-07062119, anti-GUCY2C x anti-CD3ε T cell bispecific antibody (diabody-Fc)”: the fold lower affinity than GUCY2C-0247 in assay [1] is 2.5 fold; in assay [2] it was 7.2 fold.

The record behind these values is article PMC7833764.
